Test system: T1, Leupeptin A (N-Acetyl-L-leucyl-L-leucyl-L-argininal)
T1 sequence: LLR

For “Plu4509 (hypothetical protein / candidate protease from P. luminescens TTO1), purified as a His6x-tagged variant”, the “production of metabolites 10 and 11 (in vitro enzyme assay, end point analysis; 1 h, 35 C; LC-MS)” value was “addition of enzyme indeed significantly enhanced production of 10 and 11” and the “production of metabolites 10 and 11 in E. coli expressing plu4509, fed leupeptin A, versus vector control” value was “E. coli control cultures were capable of generating both metabolites 10 and 11 with plu4509 providing an enhancement in production over controls”.

Reference: patent publication US20240294581
